Reduction of the packaging rate into COPII vesicles (Sec23a/24d) budded in the presence of 10 mM 4-PBA, packaging efficiency into COPII vesicles budded with wild-type COPII (Sec23a/24d), amount in vesicle as % of protein present in starting permeabilized cells; CHO-LDLR G544V cells and packaging efficiency into COPII vesicles budded with wild-type COPII (Sec23a/24d), amount in vesicle as % of protein present in starting permeabilized cells; wild-type CHO cells data for five substances are collected here from paper PMC5464768, “ER retention is imposed by COPII protein sorting and attenuated by 4-phenylbutyrate” (eLife, 2017).

The target of assay [1] is Sec24d (full-length, wild type) (H. sapiens) (UniProt O94855).
Chain of Sec24d (full-length, wild type) (H. sapiens) (O94855 whole entry): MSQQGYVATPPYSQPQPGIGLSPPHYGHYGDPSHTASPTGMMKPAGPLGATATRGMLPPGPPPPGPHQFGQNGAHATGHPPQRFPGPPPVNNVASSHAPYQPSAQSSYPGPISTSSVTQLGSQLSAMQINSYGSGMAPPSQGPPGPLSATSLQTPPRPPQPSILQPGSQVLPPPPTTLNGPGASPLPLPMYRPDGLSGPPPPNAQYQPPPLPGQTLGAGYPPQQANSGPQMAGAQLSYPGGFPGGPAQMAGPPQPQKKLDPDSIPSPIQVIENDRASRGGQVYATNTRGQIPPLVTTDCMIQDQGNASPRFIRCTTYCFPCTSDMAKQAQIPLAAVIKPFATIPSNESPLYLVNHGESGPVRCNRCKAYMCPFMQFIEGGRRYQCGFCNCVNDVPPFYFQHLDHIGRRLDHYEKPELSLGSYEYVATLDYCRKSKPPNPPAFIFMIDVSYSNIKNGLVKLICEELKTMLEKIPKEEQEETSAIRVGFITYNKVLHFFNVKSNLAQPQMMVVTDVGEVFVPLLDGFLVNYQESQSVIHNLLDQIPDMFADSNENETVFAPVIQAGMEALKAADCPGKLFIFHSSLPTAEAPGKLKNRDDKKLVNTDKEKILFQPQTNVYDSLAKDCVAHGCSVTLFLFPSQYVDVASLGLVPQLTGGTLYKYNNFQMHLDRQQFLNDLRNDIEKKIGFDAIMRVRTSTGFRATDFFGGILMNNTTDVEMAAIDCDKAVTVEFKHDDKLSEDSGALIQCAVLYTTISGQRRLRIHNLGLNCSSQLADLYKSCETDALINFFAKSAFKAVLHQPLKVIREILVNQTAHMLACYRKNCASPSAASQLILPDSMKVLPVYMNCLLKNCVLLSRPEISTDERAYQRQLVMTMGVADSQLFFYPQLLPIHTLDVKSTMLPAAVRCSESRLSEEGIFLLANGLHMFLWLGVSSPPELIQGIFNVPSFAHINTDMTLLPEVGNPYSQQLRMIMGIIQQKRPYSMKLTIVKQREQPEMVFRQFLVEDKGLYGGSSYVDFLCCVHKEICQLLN
Assay [2] has the same target. The source holds these as a separate data set.

Chain of p24β1 (P49020 16-196): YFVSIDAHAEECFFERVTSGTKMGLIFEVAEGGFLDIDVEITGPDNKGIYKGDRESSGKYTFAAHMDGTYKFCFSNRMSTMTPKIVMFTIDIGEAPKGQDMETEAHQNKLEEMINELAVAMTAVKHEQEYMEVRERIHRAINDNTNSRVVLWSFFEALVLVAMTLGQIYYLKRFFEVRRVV

Take ERGIC-53 (natural protein): the reduction of the packaging rate into COPII vesicles (Sec23a/24d) budded in the presence of 10 mM 4-PBA in assay [1] turned out to be 50 % reduction. The substance further gave a packaging efficiency into COPII vesicles budded with wild-type COPII (Sec23a/24d), amount in vesicle as % of protein present in starting permeabilized cells; CHO-LDLR G544V cells in assay [2] of 4.5%.
For p24α2 (natural protein), in assay [2], the packaging efficiency into COPII vesicles budded with wild-type COPII (Sec23a/24d), amount in vesicle as % of protein present in starting permeabilized cells; CHO-LDLR G544V cells was determined as 8.7% and the packaging efficiency into COPII vesicles budded with wild-type COPII (Sec23a/24d), amount in vesicle as % of protein present in starting permeabilized cells; wild-type CHO cells came to 10.9%.
Regarding p24α3 (natural protein), the reduction of the packaging rate into COPII vesicles (Sec23a/24d) budded in the presence of 10 mM 4-PBA in assay [1] came out at 50 % reduction. In assay [2], this substance showed a packaging efficiency into COPII vesicles budded with wild-type COPII (Sec23a/24d), amount in vesicle as % of protein present in starting permeabilized cells; CHO-LDLR G544V cells of 6.4% and a packaging efficiency into COPII vesicles budded with wild-type COPII (Sec23a/24d), amount in vesicle as % of protein present in starting permeabilized cells; wild-type CHO cells of 6.4%.
Take “p24β1 (from UniProt P49020 16-196) (natural protein)”: the reduction of the packaging rate into COPII vesicles (Sec23a/24d) budded in the presence of 10 mM 4-PBA in assay [1] amounted to 50 % reduction. In assay [2], the packaging efficiency into COPII vesicles budded with wild-type COPII (Sec23a/24d), amount in vesicle as % of protein present in starting permeabilized cells; CHO-LDLR G544V cells amounted to 10.6%.
Consider p24δ1 (natural protein), for which, in assay [2], the packaging efficiency into COPII vesicles budded with wild-type COPII (Sec23a/24d), amount in vesicle as % of protein present in starting permeabilized cells; CHO-LDLR G544V cells worked out at 7.7% and the packaging efficiency into COPII vesicles budded with wild-type COPII (Sec23a/24d), amount in vesicle as % of protein present in starting permeabilized cells; wild-type CHO cells amounted to 4.6%.
